Assay results: the supplement of paper PMC9170038

System: MS2 coat protein
Experiment: apparent KD of MS2 coat protein; designed switch direction (-1 OFF switch, 1 ON switch): -1; higher = weaker reporter binding
Summary of the method: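 RNA switches sharing common flanks were transcribed by stalled E. coli RNA polymerase on Illumina chips. A doubling series of SNAP-549-labelled MS2 coat protein, from 0.7 or 1.5 nM to 3 µM, was applied in Tris-HCl pH 7.5 buffer with KCl, MgCl2, BSA, DTT, tRNA and Tween-20. Each step lasted 0.8–1.5 h at the bottom of the series and 10–20 min at the top. Normalised cluster fluorescence was curve-fitted, giving apparent KD as the per-design median over clusters.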

[1] = input ligand: microRNA oligo, concentration not stated
[2] = Eterna round: R95, input ligand: FMN 200 uM
[3] = Eterna round: R95, input ligand: microRNA oligo, concentration not stated
[4] = Eterna round: R95, input ligand: none

Sequence | apparent KD of MS2 coat protein (input ligand: FMN 200 uM) | apparent KD of MS2 coat protein [1] | apparent KD of MS2 coat protein (input ligand: none) | apparent KD of MS2 coat protein [2] | apparent KD of MS2 coat protein [3] | apparent KD of MS2 coat protein [4]
AGCUGUGGCCGAGGAUAUGACAUGAGGAUCACCCAUGUACGUAAUUAGGCCUGGUAACAGGCUCGUCAGAAGGCGGUCUCAGCA [Eli eng2 - 008] (Eterna round: R96, puzzle: Exclusion NG 2) | 12.2 nM | 7.43 nM | 15.3 nM |  |  | 
AGCUGUGGCCGAGGAUAUUACGAACCAUGGAAAACCAUGGAAACUCUACAUGAGGAUCACCCAUGUAAGAAGGCGGUCUCAGCA [Eli eng2 - 024] (Eterna round: R96, puzzle: Exclusion NG 2) | 47.5 nM | 11.7 nM | 16.4 nM |  |  | 
AGCUUUUUGUUUUUGGGUGACAUGAGGAUCACCCAUGUCUUAUGGGCCCAGUAGUAGUAAGAUAGAAGGGACCCACG [-20.8, -41.27, a 31%] (Eterna round: R97, puzzle: Sensor, turn-off variant 1) | 639 nM |  | 731 nM |  |  | 
AGGAGUAGUAAGGAUAUAGCGGACUAGUCGUCGUUAGAAGGUACUACAUGAGGAUCACCCAUGUUGACCUGAGC [EX6 B.14] (Eterna round: R97, puzzle: Exclusion 6) | 46.5 nM |  | 19.6 nM |  |  | 
AGGAGUGAAGGAUAUACAUGAGGAUCACCCAUGUGGGAGGAAAGAGGUGAUGGAGAUAGUAGAAGGUCAGGAUG [JR_Exclusion3_Sub005] (puzzle: Exclusion 3) |  |  |  | 99.9 nM | 93.9 nM | 116 nM
AGGCUGUCAGGAUAUCUGCGCCGUGGUGCGCGGCGUUAUAAAGAGAAGGGACAUGAGGAUCACCCAUGUCCUCA [EX4 B.25] (Eterna round: R97, puzzle: Exclusion 4) | 79.7 nM |  | 19.4 nM |  |  | 
AGGGAACAUGAGGAUCACCCAUGUGAGGAUAUACAAAAGAAAAGAAAAGAAAGAAGAAGUAGAAGGUACAAGAA [Neferka] (Eterna round: R96, puzzle: Exclusion 1) | 32.4 nM | 26.9 nM | 32.8 nM |  |  | 
AGGGAACCCAAGGAUAUUGAGAGUUAAGCCACUUAAGAAGGUGGUACAUGAGGAUCACCCAUGUCCCUUGCAGA [Eternabot (L1) Solution 6] (Eterna round: R97, puzzle: Exclusion 6) | 38.3 nM |  | 41.6 nM |  |  | 
AGGUAACAUGAGGAUCACCCAUGUCAGGAUAUCAGGAAGAUUAGAAUAGAGUAGAGGAUGAGAAGGGACUAUAU [Excluse me! 18- Jieux - Exclusion 1] (Eterna round: R96, puzzle: Exclusion 1) |  | 24.7 nM |  |  |  | 
AGGUAACAUGAGGAUCACCCAUGUCAGGAUAUCAGGAAGAUUAGAAUAGAGUAGAGGAUGAGAAGGGACUAUAU [Excluse me! 18- Jieux - Exclusion 1] (puzzle: Exclusion 1) |  |  |  | 31 nM | 31.7 nM | 43.1 nM
AGGUCACAUGAGGAUCACCCAUGUCAGGAUAUCUACAUUGAAGCCUCGGCUUCAAUGUAGAGAAGGGAUAAUUA [E1/8-B2] (Eterna round: R97, puzzle: Exclusion 1) | 63.7 nM |  | 44.7 nM |  |  | 
AGGUCACAUGAGGAUCACCCAUGUCAGGAUAUCUACAUUGAAGCUUCGGCUUCAAUGUAGAGAAGGGACAAUUA [E1/6-B1] (Eterna round: R97, puzzle: Exclusion 1) | 341 nM |  | 75.7 nM |  |  | 
AGGUCCUUCUGGACACAUGAGGAUCACCCAUGUGAGGUCAGCGAGGAUAUCGGUCAAUAAUGUGACGAGAAGGCGCGGACCGAU [Ex NG3 #58] (Eterna round: R96, puzzle: Exclusion NG 3) | 31.6 nM | 14.8 nM | 19.1 nM |  |  | 
AGGUCCUUCUGGAGACAUGAGGAUCACCCAUGUCGAGUCAGCGAGGAUAUCGGUUAAUAAUGUGACGAGAAGGCGCGGACCGAU [Ex NG3 #55] (Eterna round: R96, puzzle: Exclusion NG 3) | 45.1 nM | 9.82 nM | 13 nM |  |  | 
AGGUGACAUGAGGAUCACCCAUGUGAGGAUAUCUGGAUACUCUUUAUUUUAGAUAUCCAGAGAAGGCACACCCU [Ex1-3: 8Z] (puzzle: Exclusion 1) |  |  |  |  | 235 nM | 
AGGUGCUUCUGGAGACAUGAGGAUCACCCAUGUCGAGUCAGCGAGGAUAUCGGUAAGACAUGUGAUGAGAAGGCGCAGACCGAU [Ex NG3 #52] (Eterna round: R96, puzzle: Exclusion NG 3) | 48.6 nM | 22.6 nM | 30.8 nM |  |  | 
AGGUGUAGAGGAUAUACUGCAAAGCACAUGAGGAUCACCCAUGUCCCUCUAUGAGAUUAAGUAGAAGGCUACACCA [Omei Ex5 C4] (Eterna round: R97, puzzle: Exclusion 5) | 55.7 nM |  | 49.9 nM |  |  | 
AGGUGUAGAGGAUAUUUAUACUCCCACAUGAGGAUCACCCAUGUCCUGGUCACCAAGGACGGAGAAGGCUACACCA [Omei Ex5 D23] (Eterna round: R97, puzzle: Exclusion 5) | 48.5 nM |  | 41.8 nM |  |  | 
AGUAACAGAGGAUAUACUAUUUUAUGUGUUUGUUGUUUUAAACAUGAGGAUCACCCAUGUAGAAGGCUGAAUAA [JMF 88] (puzzle: Exclusion 2) |  |  |  |  | 19 nM | 
AGUAACAGAGGAUAUACUGUUUUAUGUAUUUAUUAUUUUAAACAUGAGGAUCACCCAUGUAGAAGGCUGAAUAA [JMF 81] (puzzle: Exclusion 2) |  |  |  |  | 17.5 nM | 
AGUAACAGAGGAUAUACUGUUUUAUGUGUUUAUUAUUUUGAACAUGAGGAUCACCCAUGUAGAAGGCUGAAUAA [JMF 90] (puzzle: Exclusion 2) |  |  |  |  | 21.8 nM | 
AGUAACCGUCACGAAAGUGAUGGUUACACAAGUAAAUGUACAUGAGGAUCACCCAUGUCCUCAUUUGCUCGUCUUAU [Sensor 3 - 46] (puzzle: Sensor v3, turn-off variant 2) |  |  |  | 152 nM | 373 nM | 230 nM
AGUAACCGUCACGAAAGUGAUGGUUACGCAAGUAAAUGUACAUGAGGAUCACCCAUGUCCUCAAUUGCUCGUCUUAU [Sensor 3 - 52] (puzzle: Sensor v3, turn-off variant 2) |  |  |  | 663 nM | 167 nM | 623 nM
AGUAACUAUCACGAAAGUGAUAGUUACAAAACAAGUGAAACAUGAGGAUCACCCAUGUCCUCACUUGCUCGUCUUAU [Sensor 3 - 5] (puzzle: Sensor v3, turn-off variant 2) |  |  |  | 14.2 nM | 128 nM | 13.4 nM
AGUAACUAUCACGAAAGUGAUAGUUACAAAAGCAGUGAAACAUGAGGAUCACCCAUGUCCUCAUUUGCUCGUCUUAU [Sensor 3 - 24] (puzzle: Sensor v3, turn-off variant 2) |  |  |  | 53.4 nM | 576 nM | 66.5 nM
AGUAACUAUCACGAAAGUGAUAGUUACACAAGCAGUGGAACAUGAGGAUCACCCAUGUCCUCAUUUGCUCGUCUUAU [Sensor 3 - 27] (puzzle: Sensor v3, turn-off variant 2) |  |  |  | 35.5 nM | 19.6 nM | 42.2 nM
AGUACUAACACGAAAGUGUUAGUACAAAUGAGCUUUUGAACAUGAGGAUCACCCAUGUCCUCAUAAGCUCGUCUUAA [Mat - Sensor v2 - var 2 - Mod - D174] (Eterna round: R96, puzzle: Sensor v2, turn-off variant 2) | 27.4 nM | 408 nM | 32.2 nM |  |  | 
AGUACUAACACGAAAGUGUUAGUACAAUAAGCUUGUGAAACAUGAGGAUCACCCAUGUCCUCAUACGCUCGUCUUAU [salish99_TOv2_r3_055] (puzzle: Sensor v3, turn-off variant 2) |  |  |  | 500 nM | 789 nM | 655 nM
AGUACUAACACGAAAGUGUUAGUACAAUAAGCUUGUGAAACAUGAGGAUCACCCAUGUCCUCAUAUGCUCGUCUUAU [salish99_TOv2_r3_053] (puzzle: Sensor v3, turn-off variant 2) |  |  |  | 471 nM | 822 nM | 641 nM
AGUACUAACACGAAAGUGUUAGUACAAUAAGCUUGUGAAACAUGAGGAUCACCCAUGUCCUCAUCAGCUCGUCUUAU [salish99_TOv2_r3_052] (puzzle: Sensor v3, turn-off variant 2) |  |  |  | 124 nM | 409 nM | 191 nM
